Results as given in US20220380801A1 (AstraZeneca / MedImmune, published 2022).

T1: HCV NS3/4A PR K136N (S139A background), in the presence of simeprevir (Hepatitis C virus subtype 1a)
T1 chain: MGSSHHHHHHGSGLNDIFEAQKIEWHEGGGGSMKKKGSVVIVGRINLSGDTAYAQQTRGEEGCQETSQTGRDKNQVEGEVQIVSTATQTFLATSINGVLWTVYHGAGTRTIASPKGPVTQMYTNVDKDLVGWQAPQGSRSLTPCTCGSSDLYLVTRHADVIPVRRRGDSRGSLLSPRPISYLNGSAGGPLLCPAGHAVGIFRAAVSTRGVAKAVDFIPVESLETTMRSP

T2: HCV NS3/4A PR K136D (S139A background), in the presence of simeprevir (Hepatitis C virus subtype 1a)
T2 chain: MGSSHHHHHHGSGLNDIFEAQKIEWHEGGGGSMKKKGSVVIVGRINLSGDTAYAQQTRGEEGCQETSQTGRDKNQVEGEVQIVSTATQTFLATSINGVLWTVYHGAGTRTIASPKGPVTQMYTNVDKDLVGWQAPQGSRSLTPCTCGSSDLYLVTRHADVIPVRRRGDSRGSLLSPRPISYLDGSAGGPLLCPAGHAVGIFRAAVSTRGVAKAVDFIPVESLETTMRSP

T3: HCV NS3/4A PR D168E (S139A background), in the presence of simeprevir (Hepatitis C virus subtype 1a)
T3 chain: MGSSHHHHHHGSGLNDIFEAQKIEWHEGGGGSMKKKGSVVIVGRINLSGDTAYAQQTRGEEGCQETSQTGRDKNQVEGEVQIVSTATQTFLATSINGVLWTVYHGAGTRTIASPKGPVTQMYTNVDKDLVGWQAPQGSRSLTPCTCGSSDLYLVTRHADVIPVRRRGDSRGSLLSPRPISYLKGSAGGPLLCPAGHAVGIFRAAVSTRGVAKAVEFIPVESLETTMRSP


Key:
[1] = molecular target: T4, HCV NS3/4A PR (S139A):simeprevir complex (Hepatitis C virus subtype 1a); assay: phage ELISA
[2] = molecular target: T4, HCV NS3/4A PR (S139A):simeprevir complex; assay: SPR Biacore 8K, PRSIM immobilised, protease flowed with 10 nM simeprevir
[3] = molecular target: T5, BSA, in the presence of simeprevir (UniProt P02769 25-607); assay: SPR Biacore 8K, PRSIM immobilised, BSA + 10 nM simeprevir
T5 construct: also called BSA control

[4] = molecular target: T4, HCV NS3/4A PR (S139A):simeprevir complex; assay: HTRF, with simeprevir
[5] = molecular target: T1, HCV NS3/4A PR K136N (S139A background), …; assay: SPR Biacore 8K, with simeprevir
[6] = molecular target: T2, HCV NS3/4A PR K136D (S139A background), …; assay: SPR Biacore 8K, with simeprevir
[7] = molecular target: T3, HCV NS3/4A PR D168E (S139A background), …; assay: SPR Biacore 8K, with simeprevir
[8] = molecular target: T1, HCV NS3/4A PR K136N (S139A background), …
[9] = molecular target: T2, HCV NS3/4A PR K136D (S139A background), …
[10] = molecular target: T3, HCV NS3/4A PR D168E (S139A background), …
[11] = molecular target: T1, HCV NS3/4A PR K136N (S139A background), …
[12] = molecular target: T2, HCV NS3/4A PR K136D (S139A background), …
[13] = molecular target: T3, HCV NS3/4A PR D168E (S139A background), …
[14] = molecular target: T2, HCV NS3/4A PR K136D (S139A background), …; assay: SPR Biacore 8K, simeprevir titrated

T5 sequence (P02769 25-607 limits assumed): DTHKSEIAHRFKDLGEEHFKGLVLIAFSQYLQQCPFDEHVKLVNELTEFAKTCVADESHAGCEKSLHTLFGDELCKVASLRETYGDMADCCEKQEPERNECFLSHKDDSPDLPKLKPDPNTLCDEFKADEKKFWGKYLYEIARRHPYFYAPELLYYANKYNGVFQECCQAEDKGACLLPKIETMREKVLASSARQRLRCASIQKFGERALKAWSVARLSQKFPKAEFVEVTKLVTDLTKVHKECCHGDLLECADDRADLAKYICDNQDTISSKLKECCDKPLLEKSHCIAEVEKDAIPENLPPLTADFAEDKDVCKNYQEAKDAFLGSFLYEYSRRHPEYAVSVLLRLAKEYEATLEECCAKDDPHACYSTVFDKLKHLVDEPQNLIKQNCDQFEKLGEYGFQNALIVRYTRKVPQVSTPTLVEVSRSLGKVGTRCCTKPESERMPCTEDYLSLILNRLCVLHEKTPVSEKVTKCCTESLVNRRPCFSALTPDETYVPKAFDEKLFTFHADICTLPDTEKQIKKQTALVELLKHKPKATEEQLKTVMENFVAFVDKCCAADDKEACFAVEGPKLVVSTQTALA

Binder | Binding fold change [(HCV protease + Simeprevir binding)/HCV protease alone] [1] [fold] | Kd [2] [nM] | binding result [3] | HTRF max. signal (% delta F) [4] [% delta F] | also measured
PRSIM_33 (designed binder) RLDAPSQIEVKDVTDTTALITWYPPGRWYDDIWYFELTYGIKDVPGDRTTIKLARGDDVYSIGNLKPDTEYEVSLISWGPDRGDRAGSNPAKITFKTGL | 29.9 | 8.3 | no binding (tested: 20 nM) | 1700 | koff [2]: 0.0303 s⁻¹; kon [2]: 3.65e+06 M⁻¹ s⁻¹
PRSIM_47 (designed binder) RLDAPSQIEVKDVTDTTALITWSRPGVSIWYFELTYGIKDVPGDRTTIKLDYRSYYYSIGNLKPDTEYEVSLISGSYGLVGVRASNPAKITFKTGL | 25.3 | 3.9 | no binding (tested: 20 nM) | 1370 | 
PRSIM_32 (designed binder) RLDAPSQIEVKDVTDTTALITWWSPRYYYASISGFELTYGIKDVPGDRTTIKLDYASNDYSIGNLKPDTEYEVSLISWNYGDWRYSSSNPAKITFKTGL | 22.4 | 16 | no binding (tested: 20 nM) | 1960 | 
PRSIM_67 (scFv) scFv: EVQLVQSGAEVKKPGAAVRISCKTSGYVFTSYYVHWVRQAPGQGLEWMGVINPSGGNTNYAQKFQDRVTMTRDTSTTTVYMELSSLMFDDTAVYYCAKRDYGGPLANWGRGTLVTVSSGGGGSGGGGSGGGGSALSYELTQPPSVSEAPRQRVTISCSGSSSNIGNNAVNWYQQLPGKAPKLLIFYDDLLPSGVSDRFSGSKSGTSASLAISGLQSEDEADYYCAAWDDSLNGLVFGTGTKLTVL |  |  | no binding (tested: 20 nM) |  | 
PRSIM_23 (designed binder) RLDAPSQIEVKDVTDTTALITWVDPRYDDIWWFELTYGIKDVPGDRTTIKLYLNDPYYSIGNLKPDTEYEVSLISYTGDSYSRSGSNPAKITFKTGL |  |  |  |  | fold decrease of affinity against 'Wt' [5]: 6 to 7 fold; fold decrease of affinity against 'Wt' [6]: 6 to 7 fold; fold decrease of affinity against 'wt' protease [7]: ~3 fold; Kd [8]: 39.5 nM; kon [8]: 5.31e+08 M⁻¹ s⁻¹; Kd [9]: 33 nM; Kd [10]: 14.7 nM; Simeprevir EC50 for induction of heterodimerisation [11]: 8.06 nM; Simeprevir EC50 for induction of heterodimerisation [12]: 132 nM; Simeprevir EC50 for induction of heterodimerisation [13]: 3.69 nM; fold increase of the simeprevir EC50 against the wt complex [14]: ~30 fold
PRSIM_72 (scFv) scFv: QVQLVQSGAEVKKPGSSVKVSCKVSGGSFNNYGVSWVRQAPGQGLEWMGRIIPIRDTANYAQKFQGRVTITADTSTNIAYMELSGLRSDDTAVYYCARVLEDDFWGGYYDFYFYVMDVWGQGTLVTVSSGGGGSGGGGSGGGGSALSSELTQDPVVSVPLGQTARITCQGDSLTTYYATWYQQKPGQAPVLVLYNEHKRPSGISDRFSGSSAGDAASLTITDTQAEDEADYYCSSRDTGGKHVLFGGGTKLTVL |  |  | no binding (tested: 20 nM) |  | 
PRSIM_36 (designed binder) RLDAPSQIEVKDVTDTTALITWSWPRDDDYDIWYFELTYGIKDVPGDRTTIKLLNYASPYSIGNLKPDTEYEVSLISVVPDTYGRGTSNPAKITFKTGL | 27.9 | 9.7 | no binding (tested: 20 nM) | 1440 | koff [2]: 0.0498 s⁻¹; kon [2]: 5.15e+06 M⁻¹ s⁻¹
PRSIM_75 (scFv) scFv: EVQLVQSGAEVKKPGSSVKVSCKASGGSFNSYTLDWVRQAPGQGLEWMGGIIPVFGSPNYGQKFQGRVTITADESTSTAYMELSSLKSDDTAVYYCARGLVYQPLDSWGRGTLVTVSSGGGGSGGGGSGGGGSAQAVLTQPSSASGTPGQRVTISCSGSSSNIGSYTVNWYQQFPGTAPKLLIYSNTQRPSGVPDRFSGSKSGTSASLAISGLQSEDEADYYCAAWDDSLNGWVFGGGTKVTVL |  |  | no binding (tested: 20 nM) |  | 
PRSIM_04 (scFv, also called PRSIM_4) scFv: QVQLVQSGAEVKKPGSSVKVSCKASGGTFSSYAISWVRQAPGQGLEWMGGIIPIFGTANYAQKFQGRVTITADESTSTAYMELSSLRSEDTAVYYCARGMAHFYQFDLWGQGTLVTVSSGGGGSGGGGSGGGGSAQSVLTQPPSASGTPGQRVTISCSGSSSNIGSNTVNWYQQLPGTAPKLLIYSNNQRPSGVPDRFSGSKSGTSASLAISGLQSEDEADYYCAAGDHDHEHVVFGGGTKLTVL |  |  | no binding (tested: 20 nM) |  | 
PRSIM_57 (scFv) scFv: QVQLVQSGAEVKKPGSSVKVSCKASGGTFSSYAISWVRQAPGQGLEWMGGIIPIFGTANYAQKFQGRVTITADESTSTAYMELSSLRSEDTAVYYCARHTNYITVFDYWGQGTLVTVSSGGGGSGGGGSGGGGSAQSVLTQPPSASGTPGQRVTISCSGSSSNIGSNTVNWYQQLPGTAPKLLIYSNNQRPSGVPDRFSGSKSGTSASLAISGLQSEDEADYYCAAWDHHWEQVVFGGGTKLTVL |  |  | no binding (tested: 20 nM) |  | 
